Measured values taken from patent publication US20220324970A1 (Janssen / Centocor, published 2022).
Like-named read-outs stand apart in the source and are kept apart here.

T1: hpIgR_D3
T1 construct: HIS-tagged construct from HEK293 cells; also called human pIgR extracellular domain 3 (D3); hD3
T1 HIS-tagged domain construct: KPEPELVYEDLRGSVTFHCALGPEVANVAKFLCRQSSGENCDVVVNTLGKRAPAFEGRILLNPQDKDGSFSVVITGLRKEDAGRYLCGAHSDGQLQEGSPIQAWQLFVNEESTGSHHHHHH

T2: hpIgR_D2-D3
T2 construct: HIS-tagged construct from HEK293 cells; also called human pIgR extracellular domain 2-domain 3 (D2-D3); hD2-D3
T2 HIS-tagged domain construct: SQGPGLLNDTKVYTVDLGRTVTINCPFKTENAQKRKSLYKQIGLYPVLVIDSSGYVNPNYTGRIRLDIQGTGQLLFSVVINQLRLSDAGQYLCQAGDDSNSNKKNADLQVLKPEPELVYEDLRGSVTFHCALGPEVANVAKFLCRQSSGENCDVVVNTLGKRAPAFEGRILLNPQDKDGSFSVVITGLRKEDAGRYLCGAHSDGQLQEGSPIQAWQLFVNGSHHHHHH

T3: human pIgR extracellular domain 4-domain 5 (D4-D5) (human, UniProt P01833 350-565)
T3 construct: HIS-tagged construct made in HEK293 cells; also called hpIgR domains 4-5
T3 chain: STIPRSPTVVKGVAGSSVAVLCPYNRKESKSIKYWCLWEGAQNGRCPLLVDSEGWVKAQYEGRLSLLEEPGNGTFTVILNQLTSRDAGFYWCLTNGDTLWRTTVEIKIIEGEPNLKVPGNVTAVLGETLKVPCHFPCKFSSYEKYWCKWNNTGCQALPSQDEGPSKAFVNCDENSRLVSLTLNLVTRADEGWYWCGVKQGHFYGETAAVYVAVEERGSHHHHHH


What was measured:
hpIgR_D3 = biological target: T1, hpIgR_D3; test: ECL (MSD) heat map, HIS-tagged construct captured via anti-HIS, anti-human-Fc detection;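 also: VHH-mono-Fc molecules tested at 100 µg/ml for 2 h on captured His-tagged pIgR constructs (10 µg/ml), read-out as electrochemiluminescence units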
Procedure: (§1) A meso-scale discovery (MSD) platform was used for conducting epitope mapping and epitope burial studies. To test the binding of VHH-mono-Fc molecules to purified pIgR protein constructs, Streptavidin MSD plates were coated with a biotinylated anti-HIS antibody (2 μg/ml in PBS) for 1 hour at RT with 1000 rpm, washed 3× with PBT (PBS+0.1% Tween-20), incubated with blocking buffer for 1 hour at RT, incubated with His-tagged pIgR proteins (10 μg/ml in PBS) for 2 hours at RT with 1000 rpm, washed 3× with PBT, incubated with VHH-mono-Fc molecules (100 μg/ml in PBS) for 2 hours at RT with 1000 rpm, washed 3× with PBT, incubated with ruthenylated-anti-human-Fc antibody (2 μg/ml in PBS) for 1 hour at RT with 1000 rpm, washed 3× with PBT and read plates in 40 ul reading buffer using the MSD imager. ECLU values were plotted as a heatmap.
(§2) Binding of VHH-mFc molecules were tested to immobilized pIgR constructs by the electrochemiluminescence method.

[1] = biological target: T4, human pIgR extracellular domain 1 (D1) (human, UniProt P01833 19-127); test: as above
T4 construct: HIS-tagged construct made in HEK293 cells; also called hpIgR domain-1
T4 sequence (P01833 other isoform, or with tags, fused parts or gaps limits assumed): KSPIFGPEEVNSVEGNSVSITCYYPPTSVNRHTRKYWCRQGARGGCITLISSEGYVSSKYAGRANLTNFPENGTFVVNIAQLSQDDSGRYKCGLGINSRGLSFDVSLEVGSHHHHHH
Procedure: as §1, §2

[2] = biological target: T5, human pIgR extracellular domain 5 (D5) (human, UniProt P01833 460-565); test: as above
T5 construct: HIS-tagged construct made in HEK293 cells; also called hpIgR domain 5
Procedure: as §1, §2

[3] = biological target: T6, human pIgR extracellular domain (ECD) (human, UniProt P01833 19-638); test: BLI; summary table, repeats Table 1
T6 construct: also called hpIgR ECD
T6 sequence (P01833 other isoform, or with tags, fused parts or gaps): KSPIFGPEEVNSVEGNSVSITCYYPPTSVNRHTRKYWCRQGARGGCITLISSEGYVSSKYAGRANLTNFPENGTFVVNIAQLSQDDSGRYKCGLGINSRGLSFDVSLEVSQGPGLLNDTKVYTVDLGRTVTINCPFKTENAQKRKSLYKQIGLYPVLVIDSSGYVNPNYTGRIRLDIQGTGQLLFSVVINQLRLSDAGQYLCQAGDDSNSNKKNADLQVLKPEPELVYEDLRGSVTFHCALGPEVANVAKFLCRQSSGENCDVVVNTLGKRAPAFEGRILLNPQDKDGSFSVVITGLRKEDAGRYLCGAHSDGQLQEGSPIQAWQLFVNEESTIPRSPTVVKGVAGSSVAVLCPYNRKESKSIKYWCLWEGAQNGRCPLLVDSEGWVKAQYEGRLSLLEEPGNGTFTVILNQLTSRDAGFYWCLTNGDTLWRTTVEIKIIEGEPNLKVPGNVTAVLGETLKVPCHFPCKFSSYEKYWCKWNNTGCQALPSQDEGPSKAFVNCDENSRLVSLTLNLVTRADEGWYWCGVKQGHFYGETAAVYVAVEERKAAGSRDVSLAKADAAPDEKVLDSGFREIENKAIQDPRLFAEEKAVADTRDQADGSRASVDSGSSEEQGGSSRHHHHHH

[4] = biological target: T7, human pIgR, full-length, on cells (human, UniProt P01833 19-764); test: cell-based or functional assay
T7 sequence (P01833 19-764): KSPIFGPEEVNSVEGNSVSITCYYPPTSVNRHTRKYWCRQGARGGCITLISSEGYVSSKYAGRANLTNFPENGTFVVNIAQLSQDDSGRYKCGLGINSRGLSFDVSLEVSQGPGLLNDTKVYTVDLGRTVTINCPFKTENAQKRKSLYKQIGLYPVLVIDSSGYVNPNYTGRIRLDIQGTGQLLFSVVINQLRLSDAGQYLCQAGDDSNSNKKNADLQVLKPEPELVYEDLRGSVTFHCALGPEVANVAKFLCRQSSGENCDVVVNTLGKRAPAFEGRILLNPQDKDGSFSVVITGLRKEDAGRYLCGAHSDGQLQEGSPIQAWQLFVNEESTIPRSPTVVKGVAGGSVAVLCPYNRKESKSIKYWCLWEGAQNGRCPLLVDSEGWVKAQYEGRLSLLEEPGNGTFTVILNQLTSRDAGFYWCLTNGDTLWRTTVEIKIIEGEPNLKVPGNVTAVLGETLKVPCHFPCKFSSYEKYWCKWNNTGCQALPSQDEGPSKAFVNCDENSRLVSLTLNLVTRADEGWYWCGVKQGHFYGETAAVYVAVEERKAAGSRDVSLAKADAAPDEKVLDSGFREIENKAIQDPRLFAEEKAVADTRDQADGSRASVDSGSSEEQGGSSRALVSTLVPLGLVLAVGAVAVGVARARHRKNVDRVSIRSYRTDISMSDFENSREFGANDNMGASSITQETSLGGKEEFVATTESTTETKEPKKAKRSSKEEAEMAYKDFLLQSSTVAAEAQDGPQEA

[5] = biological target: T6, human pIgR extracellular domain (ECD); test: BLI; summary table, repeats Table 1; remark: listed apart in the source
[6] = biological target: T7, human pIgR, full-length, on cells; test: cell-based or functional assay; remark: listed apart in the source
[7] = biological target: T6, human pIgR extracellular domain (ECD); test: BLI (Octet RED384), 1:1 fit, 25 C, PBS
Procedure: (§3) Bio-layer Interferometry was performed as follows. […] Data were collected with Octet Data Acquisition version 7.1.0.87 (ForteBio) and analyzed using Octet Data Analysis version 7.1 (ForteBio). To measure binding kinetics between VHH-mono-Fc molecules and HIS-tagged pIgR proteins, VHH-mono-Fc was immobilized on amine-reactive generation-2 (ARG2) biosensors according to manufacturer's instructions and increasing concentrations of pIgR proteins were exposed to sensor-immobilized VHH. In some cases, HIS-tagged pIgR proteins were immobilized on anti-HIS biosensors and exposed to increasing concentrations of VHH-mono-Fc molecules. Association and dissociation rates were measured by the shift in wavelength (nm). […] All reactions were performed at 25° C. in PBS.

hpIgR_D2-D3 [8] = biological target: T2, hpIgR_D2-D3; test: BLI (Octet RED384), 1:1 fit, 25 C, PBS
Procedure: as §3

[9] = biological target: T8, human pIgR extracellular domain 1-domain 2 (D1-D2) (human, UniProt P01833 19-240); test: BLI (Octet RED384), 1:1 fit, 25 C, PBS
T8 construct: HIS-tagged construct made in HEK293 cells
T8 sequence (P01833 other isoform, or with tags, fused parts or gaps limits assumed): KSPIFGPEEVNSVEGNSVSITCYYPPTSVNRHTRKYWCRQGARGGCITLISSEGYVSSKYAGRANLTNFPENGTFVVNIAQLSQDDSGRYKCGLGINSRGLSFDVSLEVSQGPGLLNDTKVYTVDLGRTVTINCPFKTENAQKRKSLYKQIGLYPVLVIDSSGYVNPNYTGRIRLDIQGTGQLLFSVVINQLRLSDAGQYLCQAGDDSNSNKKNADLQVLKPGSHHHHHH
Procedure: as §3

[10] = biological target: T9, human pIgR extracellular domain 2 (D2) (human, UniProt P01833 128-242); test: BLI (Octet RED384), 1:1 fit, 25 C, PBS
T9 construct: HIS-tagged construct made in HEK293 cells; also called hpIgR domain 2
Procedure: as §3

[11] = biological target: T7, human pIgR, full-length, on cells; test: cell-based or functional assay; remark: listed apart in the source
[12] = biological target: T6, human pIgR extracellular domain (ECD); test: BLI (Octet), VHH-mono-Fc and hpIgR ectodomain
[13] = biological target: T7, human pIgR, full-length, on cells; test: flow cytometry on MDCK-hpIgR cells; summary table, repeats Table 1
Procedure: Flow Cytometry was performed as follows. To test whether VHH-mono-Fc molecules recognize cell-surface hpIgR, Madin-Darby canine kidney (MDCK) cells engineered to express full-length hpIgR were used. Cells were cultured in Dulbecco's modified Eagle's medium containing 10% fetal calf serum at 37° C. with 5% CO₂. Cells were split into equal fractions (≈70,000 cells) and incubated with increasing concentrations of VHH-mono-Fc molecules for 30 min at 4 C. […] Cells were washed twice with cold staining buffer, resuspended in running buffer and analyzed with an iQue Screener (IntelliCyt Corporation). Binding was assessed by RL1 (A647) Geomeans from the live cell population and EC50 was calculated by fitting log VHH concentration versus MFI in Prism (Graphpad).

[14] = biological target: T6, human pIgR extracellular domain (ECD); test: ECL (MSD), hpIgR-ECD coated, anti-Fc detection
Procedure: To check whether VHH recognizes a buried epitope on pIgR, EC₅₀ values were measured for VHH-mono-Fc molecules binding to hpIgR-ECD protein by electrochemiluminescence using two different detection antibodies, an anti-Fc antibody and an anti-VHH antibody. pIgR ECD (10 μg/ml in PBS) was coated on high-bind MSD plates for 2 hours at RT with 1000 rpm, incubated with blocking buffer for 1 hour at RT, incubated with VHH-mono-Fc molecules (increasing concentrations in PBS) for 2 hours at RT with 1000 rpm, washed 3× with PBT, incubated with ruthenylated secondary antibody (2 μg/ml in PBS) for 1 hour at RT with 1000 rpm, washed 3× with PBT and read plates in 40 ul reading buffer using the MSD imager. EC50 was calculated by fitting log VHH concentration versus log ECLU in Prism (Graphpad). The increase in EC₅₀ (>50-fold) due to anti-VHH detection was used as a measure to determine whether VHH recognized buried epitope on pIgR.

[15] = biological target: T6, human pIgR extracellular domain (ECD); test: ECL (MSD), anti-VHH detection against anti-Fc detection
[16] = biological target: T7, human pIgR, full-length, on cells; test: flow cytometry on MDCK-hpIgR cells
[17] = biological target: T7, human pIgR, full-length, on cells; test: flow cytometry on MDCK-hpIgR cells; summary table, repeats Table 1; remark: listed apart in the source
[18] = biological target: T6, human pIgR extracellular domain (ECD); test: ECL (MSD), hpIgR-ECD coated, anti-VHH detection
[19] = biological target: T3, human pIgR extracellular domain …; test: ECL (MSD) heat map, HIS-tagged construct captured via anti-HIS, anti-human-Fc detection
Procedure: (§4) The Electrochemiluminescence assay was performed as follows. A meso-scale discovery (MSD) platform was used for conducting epitope mapping and epitope burial studies. To test the binding of VHH-mono-Fc molecules to purified pIgR protein constructs, Streptavidin MSD plates were coated with a biotinylated anti-HIS antibody (2 μg/ml in PBS) for 1 hour at RT with 1000 rpm, washed 3× with PBT (PBS+0.1% Tween-20), incubated with blocking buffer for 1 hour at RT, incubated with His-tagged pIgR proteins (10 μg/ml in PBS) for 2 hours at RT with 1000 rpm, washed 3× with PBT, incubated with VHH-mono-Fc molecules (100 μg/ml in PBS) for 2 hours at RT with 1000 rpm, washed 3× with PBT, incubated with ruthenylated-anti-human-Fc antibody (2 μg/ml in PBS) for 1 hour at RT with 1000 rpm, washed 3× with PBT and read plates in 40 ul reading buffer using the MSD imager. ECLU values were plotted as a heatmap.

[20] = biological target: T6, human pIgR extracellular domain (ECD); test: BLI (Octet RED384), 1:1 fit, 25 C, PBS; column kdis
hpIgR_D2-D3 [21] = biological target: T2, hpIgR_D2-D3; test: as above
[22] = biological target: T8, human pIgR extracellular domain …; test: as above
[23] = biological target: T9, human pIgR extracellular domain 2 (D2); test: as above
[24] = biological target: T9, human pIgR extracellular domain 2 (D2); test: ECL (MSD) heat map, HIS-tagged construct captured via anti-HIS, anti-human-Fc detection;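 also: VHH-mono-Fc molecules tested at 100 µg/ml for 2 h on captured His-tagged pIgR constructs (10 µg/ml), read-out as electrochemiluminescence units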
Procedure: as §1, §2

[25] = biological target: T6, human pIgR extracellular domain (ECD); test: BLI (Octet RED384), 1:1 fit, 25 C, PBS; column kdis; remark: listed apart in the source
[26] = biological target: T3, human pIgR extracellular domain …; test: as above
[27] = biological target: T6, human pIgR extracellular domain (ECD); test: BLI (Octet RED384), 1:1 fit, 25 C, PBS; remark: listed apart in the source
[28] = biological target: T3, human pIgR extracellular domain …; test: BLI (Octet RED384), 1:1 fit, 25 C, PBS
hpIgR_D2-D3 [29] = biological target: T2, hpIgR_D2-D3; test: ECL (MSD) heat map, HIS-tagged construct captured via anti-HIS, anti-human-Fc detection
Procedure: as §4

[30] = biological target: T5, human pIgR extracellular domain 5 (D5); test: as above; remark: listed apart in the source
Procedure: as §4

Binder	binding result (hpIgR_D3)	Kd [3]	For. Trans. (Fold Incr.) [4]	Rev. Trans (Fold Incr.) [4]	Kd [5]	Transcytosis (Fold Incr.) [11]	Kd [12]	EC50 [13]	EC50 [14]	Fold change in EC50 [15]	EC50 [16]	EC50 [17]	EC50 [18]	also measured
VHH6-linker-mono-Fc protein (Fc fusion, made in CHO cells; also called VHH6-mono-Fc; hpIgR_181) EVQLVESGGGLVQAGGSLRLSCAVSGSSVSSDAMGWYRQAPGNQRAWVAFISGGGTTTYADSVKGRFTISRDNTKNTVYLHMNSLKPEDTAVYYCNHPLTSRWGQGTQVTVSSEPKTPKPQPQPQLQPQPNPTTESKSPKSPAPELLGGPSVFLFPPKPKDTLMISRTPEVTCVVVDVSHEDPEVKFNWYVDGVEVHNAKTKPREEQYNSTYRVVSVLTVLHQDWLNGKEYKCKVSNKALPAPIEKTISKAKGQPREPQVYTKPPSREEMTKNQVSLSCLVKGFYPSDIAVEWESNGQPENNYKTTVPVLDSDGSFRLASYLTVDKSRWQQGNVFSCSVMHEALHNHYTQKSLSLSPGK	no binding (tested: 100 ug/ml (single concentration))	27 nM	25.6 fold	14.6 fold	27 nM	30.7 fold	27 nM	11.5 nM	3.9 nM	1060 fold	11.5 nM	11.5 nM	4190 nM	binding result [1]: no binding (tested: 100 ug/ml (single concentration)); binding result [2]: no binding (tested: 100 ug/ml (single concentration)); increase in their apical concentration relative to control VHH (MDCK-hpIgR monolayers) [6]: > 10 fold; Kd [7]: 48.9 nM; kon [7]: 44700 M⁻¹ s⁻¹; Kd (hpIgR_D2-D3 [8]): 71.5 nM; kon (hpIgR_D2-D3 [8]): 34800 M⁻¹ s⁻¹; Kd [9]: 63.2 nM; kon [9]: 40000 M⁻¹ s⁻¹; Kd [10]: 68.1 nM; kon [10]: 39500 M⁻¹ s⁻¹; binding result [19]: no binding (tested: 100 ug/ml (single concentration)); koff [20]: 0.00219 s⁻¹; koff (hpIgR_D2-D3 [21]): 0.00249 s⁻¹; koff [22]: 0.00253 s⁻¹; koff [23]: 0.00269 s⁻¹
VHH10-linker-mono-Fc protein (Fc fusion, made in CHO cells; also called VHH10-mono-Fc; hpIgR_225) EVQVVESGGGLVQAGGSLRLSCAASGFTFTRYAMGWFRQAPGKERSFVAAISWSGSSAGYGDSVKGRFTISRDNAKNTLYLQMNSLKPEDTAVYYCAADPFNQGYWGQGTQVTVSSEPKTPKPQPQPQLQPQPNPTTESKSPKSPAPELLGGPSVFLFPPKPKDTLMISRTPEVTCVVVDVSHEDPEVKFNWYVDGVEVHNAKTKPREEQYNSTYRVVSVLTVLHQDWLNGKEYKCKVSNKALPAPIEKTISKAKGQPREPQVYTKPPSREEMTKNQVSLSCLVKGFYPSDIAVEWESNGQPENNYKTTVPVLDSDGSFRLASYLTVDKSRWQQGNVFSCSVMHEALHNHYTQKSLSLSPGK	no binding (tested: 100 ug/ml (single concentration))	256 nM	1.3 fold	3.4 fold	256 nM	5 fold	256 nM	20.4 nM	17.6 nM	2.5 fold	20.4 nM	20.4 nM	43.9 nM	binding result [24]: no binding (tested: 100 ug/ml (single concentration)); koff [25]: 0.00513 s⁻¹; koff [26]: 0.00188 s⁻¹; Kd [27]: 256 nM; kon [27]: 20000 M⁻¹ s⁻¹; Kd [28]: 115 nM; kon [28]: 16300 M⁻¹ s⁻¹; binding result (hpIgR_D2-D3 [29]): no binding (tested: 100 ug/ml (single concentration)); binding result [30]: no binding (tested: 100 ug/ml (single concentration))
